“And” between values parts separate entries of the source, which are not always exact repeats. Equal values may be shown once.
Assays:
[1] = target: Anti-EGFR Ab3 sera from Balb/c and B6D2F1 mice; test: inhibition ELISA: anti-EGFR Ab3 sera preincubated with the Anti-Id, then on coated sEGFR
[2] = target: murine monoclonal anti-EGFR antibody mAb 425 (ATCC HB 9629); test: inhibition CellELISA on fixed A431 cells; reference 5A6 and 3B6
[3] = target: murine monoclonal anti-EGFR antibody mAb 425 (ATCC HB 9629); test: competition ELISA in solution by the method of Friguet, Scatchard plot

percentage of inhibition [1] | times more effective in inhibition than 5A6 and 3B6 [2] [times] | Kd [3] [nM] | Binder
15% and 35% | 10 | 0.3 | 15H8 monoclonal anti-idiotypic antibody (Ab2) (antibody, V domains shown) VH: EVQLVESGGGLVKPGGSLKLSCAASGFTFSDYYMYWFRQHPGKRLEWVATISDAGTYTYYPDSLKGRFTISRDNAKNNLYLQMSSLKSEDTAMYFCARDGAARTSSQVYYYGMDYWGQGTSVTVSS VL: DIVMTQSQKFMSTSVGDRVSITCKASQNVRTAVAWYQQKPGQSPKALIYLASNRHTGVPDRFTGSGSGTDFTLTISNVQSEDLADYFCLQHWNYPLTFGSGTKLEIKR
100% | – | 1 | 5A6 monoclonal anti-idiotypic antibody (Ab2) (antibody, V domains shown) VH: DVKLVESGGGLVKLGGSLKLSCAASGFTFSNYYMSWVRQTPEKRLEFVAAINSNGGSTYYPDTVKGRFTISRDNAKNTLYLQMSSLKSEDTALYYCARHRGRDSSGYVGYAIDYWGQGTSVTVSS VL: DILLTQSPAILSVSPGERVSFSCRASQSIGTSIHWYQQRTNGSPRLLISILLSLSLGVPSRFSGSGSGTDFTLSINSVESEDIADYYCQQSNSWPYTFGGGTKLEIKR
